# Experimental data as given in publication PMC3690481, “OTULIN Antagonizes LUBAC Signaling by Specifically Hydrolyzing Met1-Linked Polyubiquitin” (Cell, 2013).
# Target: T1, FlAsH-tagged Met1-diUb (UniProt P0CG48 1-76; P0CG48 1-71, Lumio Green (FlAsH) on the C-terminal WCCPGCC motif)
# T1 construct: ubiquitin, distal moiety, residues 1-76, joined by Gly76 in a peptide bond to Met1 of the proximal moiety; ubiquitin, proximal moiety; a C-terminal WCCPGCC motif replaces aa 72-76, so that residues 1-71 are left; Construct described in Ye et al., 2011; Chain: Ub(1-76)-Ub(1-71)-WCCPGCC; also called FlAsH-tagged Met1-diUb WT; Met1-linked diUb; source: expressed from pET17 plasmid, purified as …
# Assay: fluorescence polarisation; FlAsH-tagged diUb fixed (10 μl of 100 nM plus 10 μl protein), OTULIN C129A variants serially diluted; 20 mM Tris pH 7.4, 100 mM NaCl, 5 mM β-mercaptoethanol, 0.1 mg/ml BSA; one-site binding model; triplicate
# Settings: both partners purified
binding result,Kd [nM],Binder
binds,,"OTULIN C129A TQK100-102AAA (enzyme, human, UniProt Q96BN8 1-352, looked up, also called triple mutant TQK100-102 to AAA; source: E. coli Rosetta2 (DE3) pLacI, purified (Ni2+ resin, 3C protease, SEC)) MSRGTMPQPEAWPGASCAETPAREAAATARDGGKAAASGQPRPEMQCPAEHEEDMYRAADEIEKEKELLIHERGASEPRLSVAPEMDIMDYCKKEWRGNAAAATCMKMGYEEVSQKFTSIRRVRGDNYAALRATLFQAMSQAVGLPPWLQDPELMLLPEKLISKYNWIKQWKLGLKFDGKNEDLVDKIKESLTLLRKKWAGLAEMRTAEARQIACDELFTNEAEEYSLYEAVKFLMLNRAIELYNDKEKGKEVPFFSVLLFARDTSNDPGQLLRNHLNQVGHTGGLEQVEMFLLAYAVRHTIQVYRLSKYNTEEFITVYPTDPPKDWPVVTLIAEDDRHYNIPVRVCEETSL"
,196,"OTULINcat C129A (aa 80–352) (domain or fragment, human, UniProt Q96BN8 80-352, looked up, FAM105B/OTULIN, human, catalytic OTU domain aa 80-352, catalytic Cys129 changed to Ala; Expressed from pOPIN-F. PDB 3ZNV is the wild-type parent of the same limits; also called OTULIN (80–352) C129A; OTULIN 80-352 C129A; source: E. coli Rosetta2 (DE3) pLacI, purified (Ni2+ resin, 3C protease, anion exchange, SEC)) LSVAPEMDIMDYCKKEWRGNTQKATCMKMGYEEVSQKFTSIRRVRGDNYAALRATLFQAMSQAVGLPPWLQDPELMLLPEKLISKYNWIKQWKLGLKFDGKNEDLVDKIKESLTLLRKKWAGLAEMRTAEARQIACDELFTNEAEEYSLYEAVKFLMLNRAIELYNDKEKGKEVPFFSVLLFARDTSNDPGQLLRNHLNQVGHTGGLEQVEMFLLAYAVRHTIQVYRLSKYNTEEFITVYPTDPPKDWPVVTLIAEDDRHYNIPVRVCEETSL"
